Source: PMC10457384 (2023)

Tests used:
Max 37-83 [1] = target: T1, Max 37-83 (Homo sapiens, UniProt P61244); assay: single-molecule SiNW-FET electrical recording (pH 7.4, 37 °C)
T1 chain: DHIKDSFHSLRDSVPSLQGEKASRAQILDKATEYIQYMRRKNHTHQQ

Max 37-83 [2] = target: T1, Max 37-83; assay: single-molecule SiNW-FET electrical recording (pH 6.5)

Kd (Max 37-83 [1]): 205 nM
Kd (Max 37-83 [2]): 67 nM
B1: c-Myc 370-414 (peptide)
chain: KRRTHNVLERQRRNELKRSFFALRDQIPELENNEKAPKVVILKKA
modifications: C-terminal cysteine added to c-Myc, immobilized on nanowire
